Assay results published in IntAct's records for PubMed 23890821.

B1: Protein Vpu (Human immunodeficiency virus type 1 group M subtype B (isolate HXB2) (HIV-1)), P05919 (parent)
chain: MQPIPIVAIVALVVAIIIAIVVWSIVIIEYRKILRQRKIDRLIDRLIERAEDSGNESEGEISALVEMGVEMGHHAPWDVDDL

Variants of: B1
Conditions: with cd4_human CD4, P01730

Variant | effect of a mutation on the interaction
I18F;V22F;V26L | decreasing interaction strength
